{
  "source": "the DeepSol protein solubility set",
  "data": [
    {"assay": "soluble on expression in E. coli; label from the status in PepcDB or PDB records", "values": [
      {"sequence": "MGSDKIHHHHHHMTSPSPDQVIRQEILALSAYHVPPAKDMVKLDAMENPYRLPPFLCEEISRIAADTSINRYPDPHAAALKEVLSTTLSVPAGMEIMLGNGSDEIIQIIMLAAAKPEAKLLTIEPGFAMFKMIATFANMQYIGIPLKPDFSLDIDRMLAAIERHQPSVIFLAYPNNPSGNLFDTSALEKIIEISPGLVVIDEAYHPFAGKSFIGRLADYPNLLVMRTLSKLGLAGLRLGLLAGRPEWLSHLEKLRLPYNVNVITQLVATKIMQHYDVLQQQADAIRQTRTRLRTFLENLNGIEVFPSNANFILFRLDGASQIFRLLQQHGILVKNLDNSHPLLKNCLRVTVGTPEENDRFCNTLQDLIAGN", "soluble on expression in E. coli": "not soluble"},
      {"sequence": "MMNTKVALKQLMATHFITVDVPCPECGGAMTAWKEPTPDTPPRCPPVCMECGYRSVKKKEATTAKNLYESSLIKKAKDYFLNGSVLTDRKSLHKKISNYYPSNQESTKAKNISMEFCEKTLLGEIHHLILTGGVGVGKSHLAIGCLNEILVKSNYSKKVLFVSYRELLEQLKFAMNDEEARKAITGVAMSEIKAADVVVLDDIGAELGDFNKRDEKGNLILSRASNFDIDTLTGILESRIDKPTIITSNLKSKEIKYCYGERIVSRMATHSNGFMHRFTNTKDYRLKTALEHHHHHH", "soluble on expression in E. coli": "soluble"},
      {"sequence": "MGGRSNSATTAAQQNAVLRIVVVGGGGVGKSALTIQFIQRYFVQDYDPTIEDSYTKQCFVDEDLCKLEILDTAGQEEFSTMREQYLRTGSGFLIVFAVTDRNSFEEVKKLHELICRIKDRDDFPIILVGNKADLENERHVARHEAEELAHRLSIPYLECSAKIRKNVDEAFFDIVRLVRKYQHDERMPIHPHDDRKLESPIKLKKKKNCRIQ", "soluble on expression in E. coli": "soluble"},
      {"sequence": "MSLSDSQTLVVKLGTSVLTGGSRRLNRAHIVELVRQCAQLHAAGHRIVIVTSGAIAAGREHLGYPELPATIASKQLLAAVGQSRLIQLWEQLFSIYGIHVGQMLLTRADMEDRERFLNARDTLRALLDNNIVPVINENDAVATAAIKVGDNDNLSALAAILAGADKLLLLTDQKGLYTADPRSNPQAELIKDVYGIDDALRAIAGDSVSGLGTGGMSTKLQAADVACRAGIDTIIAAGSKPGVIGDVMEGISVGTLFHAQATPLENRKRWIFGAPPAGEITVDEGATAAILERGSSLLPKGIKSVTGNFSRGEVIRICNLEGRDIAHGVSRYNSDALRRIAGHHSQEIDAILGYEYGPVAVHRDDMITREGHHHHHH", "soluble on expression in E. coli": "soluble"},
      {"sequence": "MSSKNEQTPKVPAELDPLNETIFREQMYAIYQVCQYPSKEQYAEWAQTYQIQQRRIRKWFDNRRTRDRERRKRKGDDNEDSSEISKRGRVTCGLDYKNHEEESTDDFQDDIEELDNSQFEMAKVSSIRDELKDVKSESPPVMEQSFHLRTVQHVSTPRRDRIIPESQTLFVPAGCSLDYEKWTPAEFLQWTSNFLSSAQAMDIIKSQEISGDTMESFFDDPDFRKETGMPYGPFQTIKKHAATVINRFNGYE", "soluble on expression in E. coli": "not soluble"},
      {"sequence": "MGSDKIHHHHHHMNEAQQERRRSVRRDLHSYPEPAWREFYTTSRIAEEIERIGVDQLYIGRNVVDGDARMAVPDDDELEDWQRKARDAGAREDVLEAAAGGFTGALAVLEQGEGPTVALRVDIDALPITESDSVAHAPATEEFRSTNEGYMHACGHDAHATIGLGVLEAVKESDFKGTFKVVFQPAEEVIGGGKAVAESGHLDDVDHLLAIHIGLDHPTGEIVAGVGGFLAVRQFEATFTGETAHAGGHPAQGRDAVQALATAVQNLHAIRRHGDGATRVNAGVVEGGTATNIVPGEATLEGEVRGETTPLKEYMSERADTVMSSAAEMHDCEVAIETTAEAPSAVSDDALAGVVYDAADSVPGVTSRLRTDDLGGSEDATYLMDRVQNHGGTATFVGIGTDHPGGHHTPLFDIDEDSLTIGIDVVTEAISQLSG", "soluble on expression in E. coli": "not soluble"},
      {"sequence": "WLLAELTYRCPLQCPYCSNPLDFARQDKELTTEQWIEVFRQARAMGSVQLGFSGGEPLTRKDLPELIRAARDLGFYTNLITSGIGLTESKLDAFSEAGLDHIQISFQASDEVLNAALAGNKKAFQQKLTMAKAVKARDYPMVLNFVLHRHNIDQLDKIIELCIELEADDVELATCQFYGWAFLNREGLLPTREQIARAEQVVADYRQKMAASGNLTNLLFVTPDYYEERPKGCMGGWGSIFLSVTPEGTALPCH", "soluble on expression in E. coli": "not soluble"},
      {"sequence": "MNNLISQDKRISSNPVAKIIYGDPVTFLPHLPRKSVVHCSKIWSCRKRITVEYLQHIVEQKNGKERVPILWHFLQKEAELRLVKFLPEILALQRDLVKQFQNVQQVEYSSIRGFLSKHSSDGLRQLLHNRITVFLSTWNKLRRSLETNGEINLPKDYCSTDLDLDTEFEILLPRRRGLGLCATALVSYLIRLHNEIVYAVEKLSKENNSYSVDAAEVTELHVISYEVERDLTPLILSNCQYQVEEGRETVQEFDLEKIQRQIVSRFLQGKPRLSLKGIPTLVYRHDWNYEHLFMDIKNKMAQDSLPSSVISAISGQLQSYSDACEVLSVVEVTLGFLSTAGGDPNMQLNVYTQDILQMGDQTIHVLKALNRCQLKHTIALWQFLSAHKSEQLLRLHKEPFGEISSRYKADLSPENAKLLSTFLNQTGLDAFLLELHEMIILKLKNPQTQTEERFRPQWSLRDTLVSYMQTKESEILPEMASQFPEEILLASCVSVWKTAAVLKWNREMR", "soluble on expression in E. coli": "not soluble"},
      {"sequence": "MEEMSMEKIVNDILKEEVYYEKLQNGLDVYFMPKRGFMKKYAILATNYGSNDLEFVPIGEDKKIRVNEGIAHFLEHKMFEQPDGGDAFDKFSKLGVNANAFTNFTMTAYLFSATENFYESLEHLIDYVQTPYFTDENVEKEKGIIAQEIKMYNDDPDWNVYFNCLKAMYVNYPARIDIAGTVDSIYKITKEELYKCYNTFYNPGNMALFVVGDLDVEKVIDVTKKS", "soluble on expression in E. coli": "not soluble"},
      {"sequence": "MSDITTKSTKQTESLVCGEFKALGPAPYYVGDEIIVMRCAETINEIFSDWTKRANLDENKYTPFDVNAPIELPRRTDMLKSYNLDPPINETGKIASKMIARELCDRHAIPSVIFCSPDFASVETAHLIKSYIGEKCGAIRIEPELSTLHKSAHVFFGPNHFTSLGYGIDEKNPLHAVSDGVSLSDLVNRIKRAFYELTSKVDNALIIVDSLSMMIISSLFHNVYIRNDSSVDLERLRSLASFPSLSNFTAYRVGGQTGVKTYDLTSTCLRPLTFTGFSNEIDLE", "soluble on expression in E. coli": "not soluble"},
      {"sequence": "MGLLLYRELVHKLKTKYKKIAGKGENQKDKTLPWHLETDQLTNRHPNHKVRIPYIDEVFDMLAKMTAKNQLTLPKSVTTAVGAGEYFEIEVRNGQIVLTPVRIQRADAVRAKLAELDLGERDIMDAVTWARQPVKGSATE", "soluble on expression in E. coli": "not soluble"},
      {"sequence": "GPMNQLDQLGTRINLICNVFDKWIGQQDLNYNLFAVLYTLATEGSRTQKHIGEKWSLPKQTVSGVCKTLAGQGLIEWQEGEQDRRKRLLSLTETGKAYAAPLTESAQEFSDKVFATFGDKRTTRLFADLDALAEVMEKTISENKK", "soluble on expression in E. coli": "soluble"},
      {"sequence": "MKLLSSIEQACDICRLKKLKCSKEKPKCAKCLKNNWECRYSPKTKRSPLTRAHLTEVESRLERLEF", "soluble on expression in E. coli": "soluble"},
      {"sequence": "SHMTDDKKKGKFIVFEGLDRSGKSTQSKLLVEYLKNNNVEVKHLYFPNRETGIGQIISKYLKMENSMSNETIHLLFSANRWEHMNEIKSLLLKGIWVVCDRYAYSGVAYSSGALNLNKTWCMNPDQGLIKPDVVFYLNVPPNYAQNRSDYGEEIYEKVETQKKIYETYKHFAHEDYWINIDATRKIEDIHNDIVKEVTKIKVEPEEFNFLWS", "soluble on expression in E. coli": "soluble"},
      {"sequence": "MYGTEQIISGTIIAGPEILPIEGYICVKNGIITEIGEERTNSKNIIAPCFVNAHTHLGDSVCKDPVLGKTSGFRVQRDLDSLVKPPDGLKHRILRETPYKTLVGHIKRSLLDMIDTGTCAFADFREGGFLGVAALNKALEGLELRSLIFGRPAEPDLPLQVVLSEVRRILLRSDGLGMSGANDLDMNLLQEITACTRERKKLFAIHAGEKNRSDIEKALSLEPDLLIHLTHAGKKDLDEIAQAKIPVVVCPRSNFVTGAGMAPIAEMLEAGIRVAAGTDNVMLNSVNMFAEMEFMSKIFSIDDRQVFKICTLNGSFVMGPDSMCSIEKGNKANLMILNGDSNNLAGIQDPVGGITKRARPDDILAVLHS", "soluble on expression in E. coli": "not soluble"},
      {"sequence": "MGSDKIHHHHHHMVTLEPENKVRKILITDCADAKGLIAKITGVCFAHQLNIIKNTEFVDRIQGRFFMRTVLEGVFDDASLLKALSEVLPAQNHTKLVAADKKRIVVMVTKEAHCLGDLLMKAYYGGLDVDIAAVVGNYDSLRNLTEKFDIPFHHVCHQGLDRLEHEQAILKIVNGYQPDYVVLAKYMRVLTPEFVCAYPDRIINIHHSFLPAFIGASPYKQAWERGVKIIGATAHFVNDCLDEGPIIKQDVISVDHTFSAEEMAHNGRDVEKSVLSKALQLVLNEQVIVYGNKTVVF", "soluble on expression in E. coli": "not soluble"},
      {"sequence": "MKKIATATIATAGIATFAFAHHDAQAAEQNNDGYNPNDPYSYSYTYTIDAEGNYHYTWKGNWSPDRVNTSYNYNNYNNYNYYGYNNYSNYNNYSNYNNYNNYQSNNTQSQRTTQPTGGLGASYSTSSSNVHVTTTSAPSSNGVSLSNARSASGNLYTSGQCTYYVFDRVGGKIGSTWGNANNWANAAARSGYTVNNSPAKGAILQTSQGAYGHVAYVEGVNSNGSIRVSEMNYGHGAGVVTSRTISASQAASYNYIHLEHHHHHH", "soluble on expression in E. coli": "not soluble"},
      {"sequence": "MAIKVGINGFGRIGRSFFRASWGREEIEIVAINDLTDAKHLAHLLKYDSVHGIFKGSVEAKDDSIVVDGKEIKVFAQKDPSQIPWGDLGVDVVIEATGVFRDRENASKHLQGGAKKVIITAPAKNPDITVVLGVNEEKYNPKEHNIISNASCTTNCLAPCVKVLNEAFGVEKGYMVTVHAYTNDQRLLDLPHKDFRRARAAAINIVPTTTGAAKAIGEVIPELKGKLDGTARRVPVPDGSLIDLTVVVNKAPSSVEEVNEKFREAAQKYRESGKVYLKEILQYCEDPIVSTDIVGNPHSAIFDAPLTQVIDNLVHIAAWYDNEWGYSCRLRDLVIYLAERGL", "soluble on expression in E. coli": "soluble"},
      {"sequence": "MSLAYGSLLFKRFSITIKYRKLIVEHIEKGDLKLTEEFKNILRDLMVTTFKKADSILIEKCKAEEKHYSSCTGVVLLFIKDILVNAHIGDSRSVACTYSNSINLAQFLTIDHKPDQPLEYRRIVENGGSVEYLQNHNNKPFLRGGDFTRRRARGETPMQLQYSRAFGGKDLKPYGLSCVPDISIISLNQNNRLFIIATDGIWDLLSAQQSCDLSFYSQELGIQPARYLVNAVLEETRNRNTNCDNLTAICIMHIKNEGHHHHHH", "soluble on expression in E. coli": "soluble"},
      {"sequence": "KDFCASIHRNDSLSLTHELEPFIDSMKNKTGVYVLEDGGGSLITRAWLSEYAEETIDIQYFIFSADNVGLIACDYLVRAADRGVKVRILIDDILVEAGVHEILTLDSHENIEIKIYNPGINLGKNIFNKIGKFTTDFRGANQRMHNKTFIVDHKVVITGGRNIADEYFDYDHEYNFRDRDVLLIGKTATDVQQSFESFWVDALSIPITGLVKEDDVTYTDTSRFERLHQYACNPDNFWPQVRKRISN", "soluble on expression in E. coli": "not soluble"},
      {"sequence": "MHHHHHHGSACFAKGTNVLMADGSIECIENIEVGNKVMGKDGRPREVIKLPRGSETMYSVVQKSQHRAHKSDSSREMPELLKFTCNATHELVVRTPRSVRRLSRTIKGVEYFEVITFEMGQKKAPDGRIVELVKEVSKSYPVSEGPERANELVESYRKASNKAYFEWTIEARDLSLLGSHVRKATYQTYAPIGAAFARECRGFYFELQELKEDDYYGITLSDDSDHQFLLANQVVVH", "soluble on expression in E. coli": "soluble"},
      {"sequence": "VSSGAGSDATGAGGVHAAGSGDRAVAAAVERAKATAARNIPAFDDLPVPADTANLREGADLNNALLALLPLVGVWRGEGEGRGPDGDYRFGQQIVVSHDGGDYLNWESRSWRLTATGDYQEPGLREAGFWRFVADPYDPSESQAIELLLAHSAGYVELFYGRPRTQSSWELVTDALARSRSGVLVGGAKRLYGIVEGGDLAYVEERVDADGGLVPHLSARLSRFVG", "soluble on expression in E. coli": "soluble"}
    ]}
  ]
}
